Assay results published in patent US20060110789.

Target: diketide-ACP4(Ø) (DEBS ACP4 without linker, loaded with diketide), Q03132
Sequence (Q03132 other isoform, or with tags, fused parts or gaps): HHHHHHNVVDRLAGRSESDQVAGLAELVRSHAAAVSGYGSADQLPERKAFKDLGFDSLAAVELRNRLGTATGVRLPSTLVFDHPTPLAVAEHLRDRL

B1: (5)M2+TE (module 2 of DEBS with the N-terminal linker of module 5, fused to thioesterase) (protein)
chain: MSGDNGMTEEKLRRYLKRTVTELDSVTARLREVEHRAGIAIVGMACRLPGEVDSPERLWELITSGRDSAAEVPDDRGWVPDELMASDAAGTRAHGNFMAGAGDFDAAFFGISPREALAMDPQQRQALETTWEALESAGIPPETLRGSDTGVFVGMSHQGYATGRPRPEDGVDGYLLTGNTASVASGRIAYVLGLEGPALTVDTACSSSLVALHTACGSLRDGDCGLAVAGGVSVMAGPEVFTEFSRQGALSPDGRCKPFSDEADGFGLGEGSAFVVLQRLSDARREGRRVLGVVAGSAVNQDGASNGLSAPSGVAQQRVIRRAWARAGITGADVAVVEAHGTGTRLGDPVEASALLATYGKSRGSSGPVLLGSVKSNIGHAQAAAGVAGVIKVLLGLERGVVPPMLCRGERSGLIDWSSGEIELADGVREWSPAADGVRRAGVSAFGVSGTNAHVIIAEPPEPEPVPQPRRMLPATGVVPVVLSARTGAALRAQAGRLADHLAAHPGIAPADVSWTMARARQHFEERAAVLAADTAEAVHRLRAVADGAVVPGVVTGSASDGGSVFVFPGQGAQWEGMARELLPVPVFAESIAECDAVLSEVAGFSVSEVLEPRPDAPSLERVDVVQPVLFAVMVSLARLWRACGAVPSAVIGHSQGEIAAAVVAGALSLEDGMRVVARRSRAVRAVAGRGSMLSVRGGRSDVEKLLADDSWTGRLEVAAVNGPDAVVVAGDAQAAREFLEYCEGVGIRARAIPVDYASHTAHVEPVRDELVQALAGITPRRAEVPFFSTLTGDFLDGTELDAGYWYRNLRHPVEFHSAVQALTDQGYATFIEVSPHPVLASSVQETLDDAESDAAVLGTLERDAGDADRFLTALADAHTRGVAVDWEAVLGRAGLVDLPGYPFQGKRFWLLPDRTTPRDELDGWFYRVDWTEVPRSEPAALRGRWLVVVPEGHEEDGWTVEVRSALAEAGAEPEVTRGVGGLVGDCAGVVSLLALEGDGAVQTLVLVRELDAEGIDAPLWTVTFGAVDAGSPVARPDQAKLWGLGQVASLERGPRWTGLVDLPHMPDPELRGRLTAVLAGSEDQVAVRADAVRARRLSPAHVTATSEYAVPGGTILVTGGTAGLGAEVARWLAGRGAEHLALVSRRGPDTEGVGDLTAELTRLGARVSVHACDVSSREPVRELVHGLIEQGDVVRGVVHAAGLPQQVAINDMDEAAFDEVVAAKAGGAVHLDELCSDAELFLLFSSGAGVWGSARQGAYAAGNAFLDAFARHRRGRGLPATSVAWGLWAAGGMTGDEEAVSFLRERGVRAMPVPRALAALDRVLASGETAVVVTDVDWPAFAESYTAARPRPLLDRIVTTAPSERAGEPETESLRDRLAGLPRAERTAELVRLVRTSTATVLGHDDPKAVRATTPFKELGFDSLAAVRLRNLLNAATGLRLPSTLVFDHPNASAVAGFLDICCAGTAAISGPHEFTRLAGALRGIAPVRAVPQPGYEEGEPLPSSMAAVAAVQADAVIRTQGDKPFVVAGHSAGALMAYALATELLDRGHPPRGVVLIDVYPPGHQDAMNAWLEELTATLFDRETVRMDDTRLTALGAYDRLTGQWRPRETGLPTLLVSAGEPMGPWPDDSWKPTWPFEHDTVAVPGDHFTMVQEHADAIARHIDAWHHHHHH
- kcat/KM, fold decrease against diketide-ACP4(4) with the same module: the kcat/KM values drop approximately 70-300 fold
